The results in this text go back to paper PMC12140367, “Discovery, Herbicidal Activity and Biosynthesis of a Novel Natural Tetramic Acid from Alternaria Species” (Advanced Science, 2025).

What all share (assay type): biochemical, Alternaria alternata
The subject of one data set is CCC(O)(CC(=O)O)C(=O)O. The experiment in a line: UPLC-MS quantification of 3EMA formed. The conditions noted are these: 250 mM potassium phosphate pH 7.0, 30 °C.
Another data set has as its system CCC(=O)C(=O)O. The experiment in a line: UPLC-MS quantification of 2EMA formed. The conditions noted are these: 1 mM acetyl-CoA, 10 mM MgCl2, potassium phosphate pH 7.5, 30 °C.
In another data set the test system is CCC(C(=O)O)C(O)C(=O)O. In words: UPLC-MS quantification of OVA formed. The settings on record: 1 mM NAD+, 5 mM MnCl2, 1 mM DTT, MOPS-KCl pH 7.5, 30 °C.

For IPMDH (Alternaria alternata), the Km in the data set with CCC(O)(CC(=O)O)C(=O)O came to 786.26 µM. Take IPMS (Alternaria alternata): the Km in the data set with CCC(=O)C(=O)O stood at 164.36 µM. For ISMD (Alternaria alternata), the Km in the data set on CCC(C(=O)O)C(O)C(=O)O was 87.20 µM.
